Reference: patent US7271238

Molecular target: amylin receptors (rat basal forebrain membranes, containing the nucleus accumbens and surrounding regions) (rat)
Experiment: competition radioligand binding, displacement of 125I-rat amylin from rat basal forebrain membranes

| IC50 [pM] | Molecule |
| --- | --- |
| 15 | 28Pro-human-Amylin (peptide) |
| 10 | KCNTATCATQRLANFLVHSSNNFGPILPPTNVGSNTY (2,7-disulfide; made on methylbenzhydrylamine resin (C-terminal amide not spelled out)) [25,28,29Pro-h-Amylin] |
